Reference: patent publication US20260166128A1, “HUMAN AMYLIN ANALOG, AND DERIVATIVE THEREOF AND USE THEREOF” (priority 2022, published 2026)
Numbered stars: 1 amine (or outer) side, 2 acyl side, 3 side chain; on linkers, the order of the positions; unused ones are H or OH. Bridge positions count the residues as written; N and C are the ends. Square brackets hold non-standard residues; d marks the D form. Primed or numbered codes have the meaning given here. Side chains are listed from the residue outwards. Peptide text beside a SMILES is read from it. * marks the point of attachment. C20 diacid = O=C(O)CCCCCCCCCCCCCCCCCCC(=O)*; C18 diacid = O=C(O)CCCCCCCCCCCCCCCCC(=O)*; X1 = N[C@@H]1CCN([*:1])[C@@H]1C(=O)[*:2]; C16 diacid = O=C(O)CCCCCCCCCCCCCCC(=O)*; γGlu = O=C(O)[C@H](CCC(=O)[*:2])N[*:1]; C14 diacid = O=C(O)CCCCCCCCCCCCC(=O)*; C12 diacid = O=C(O)CCCCCCCCCCC(=O)*; HOOC(CH2)8CO = O=C(O)CCCCCCCCC(=O)*; Trx′ = not defined here

Assay: Freeze-thaw stability of derivatives (freeze-thaw yield by liquid chromatography)
Format: physicochemical
Settings: for Dissolution property: appearance after dissolution at 0.2 mg/ml in 20 mM phosphate buffer solution (PB) (pH 7.0); for Freeze storage property: appearance after overnight storage at −20° C. and thawing to room temperature, 0.2 mg/ml in 20 mM PB (pH 7.0); for Freeze storage yield: concentration of polypeptide after freezing and thawing / concentration before, by liquid chromatography, −20° C. overnight
Procedure: The freeze-dried powder of the polypeptide analog derivative prepared in Example 1 was mixed with a buffer solution according to a mass-volume ratio of 0.2 mg/ml, the polypeptide was dissolved with 20 mM phosphate buffer solution (PB) (pH 7.0), the sample was stored at −20° C. for overnight storage, and then the sample was taken out to be restored to room temperature for thawing. During the experiment, property changes of the polypeptide after dissolution and freezing and thawing were observed and recorded respectively, and concentrations of the polypeptide before and after the freezing and thawing were detected by the following liquid chromatography method: Materials and equipment: high-performance liquid chromatographic instrument (Agilent 1200), ultrapure water (18.2 MΩ self-manufactured ultrapure water), acetonitrile (HPLC grade), and trifluoroacetic acid (HPLC grade); and reversed-phase chromatographic column: […] A sample to be tested was centrifuged at 10,000 rpm and 4° C. for 3 minutes, and a supernatant was taken and added into a liquid-phase sample injection bottle. […] A freeze-thaw yield was calculated by the following formula: freeze-thaw yield=concentration of polypeptide after the freezing and thawing/concentration of polypeptide before the freezing and thawing.

Row | Compound | Dissolution property | Freeze storage property | Freeze storage yield
1 | CC[C@H](C)[C@H](NC(=O)[C@@H]1CCCN1C(=O)[C@H](CCCCNC(=O)CC[C@H](NC(=O)CCCCCCCCCCCCCCCCCCC(=O)O)C(=O)O)NC(=O)[C@H](CC(C)C)NC(=O)[C@H](CC(N)=O)NC(=O)[C@H](CC(N)=O)NC(=O)[C@H](CO)NC(=O)[C@H](CO)NC(=O)[C@H](Cc1c[nH]cn1)NC(=O)[C@H](CCCNC(=N)N)NC(=O)[C@H](CC(C)C)NC(=O)[C@H](Cc1ccccc1)NC(=O)[C@H](CC(=O)O)NC(=O)[C@H](C)NC(=O)[C@H](CC(C)C)NC(=O)[C@H](CCCNC(=N)N)NC(=O)[C@H](CCC(N)=O)NC(=O)[C@@H](NC(=O)[C@H](C)NC(=O)[C@@H]1CSSC[C@H](NC(=O)[C@@H](N)CCCNC(=N)N)C(=O)N[C@@H](CC(N)=O)C(=O)N[C@@H]([C@@H](C)O)C(=O)N[C@@H](C)C(=O)N[C@@H]([C@@H](C)O)C(=O)N1)[C@@H](C)O)C(=O)N[C@@H](CC(C)C)C(=O)N1CCC[C@H]1C(=O)N1CCC[C@H]1C(=O)N[C@H](C(=O)N[C@@H](CC(N)=O)C(=O)N[C@H](C(=O)NCC(=O)N[C@@H](CO)C(=O)N[C@@H](CC(N)=O)C(=O)N[C@H](C(=O)N1CCC[C@H]1C(N)=O)[C@@H](C)O)C(C)C)[C@@H](C)O [PD042] (H-RCNTATCATQRLADFLRHSSNNLK([γGlu-C20 diacid])PILPPTNVGSNTP-NH2; disulfide 2-7 (inferred); N-terminus assumed) | Clear | Clear | 95.19%
2 | CC[C@H](C)[C@H](NC(=O)[C@@H]1CCCN1C(=O)[C@H](CCCCNC(=O)CC[C@H](NC(=O)CCCCCCCCCCCCCCCCCCC(=O)O)C(=O)O)NC(=O)[C@H](CC(C)C)NC(=O)[C@H](CC(N)=O)NC(=O)[C@H](CC(N)=O)NC(=O)[C@H](CO)NC(=O)[C@H](CO)NC(=O)[C@H](Cc1c[nH]cn1)NC(=O)[C@H](CCCNC(=N)N)NC(=O)[C@H](CC(C)C)NC(=O)[C@H](Cc1ccccc1)NC(=O)[C@H](CC(=O)O)NC(=O)[C@H](C)NC(=O)[C@H](CC(C)C)NC(=O)[C@H](CCCNC(=N)N)NC(=O)[C@H](CCC(N)=O)NC(=O)[C@@H](NC(=O)[C@H](C)NC(=O)[C@@H]1CSSC[C@H](NC(=O)[C@@H](N)CCCNC(=N)N)C(=O)N[C@@H](CC(N)=O)C(=O)N[C@@H]([C@@H](C)O)C(=O)N[C@@H](C)C(=O)N[C@@H]([C@@H](C)O)C(=O)N1)[C@@H](C)O)C(=O)N[C@@H](CC(C)C)C(=O)N1CCC[C@H]1C(=O)N1CCC[C@H]1C(=O)N[C@H](C(=O)N[C@@H](CC(N)=O)C(=O)N[C@H](C(=O)NCC(=O)N[C@@H](CO)C(=O)N[C@@H](CC(N)=O)C(=O)N[C@H](C(=O)N1CCC[C@H]1C(N)=O)[C@@H](C)O)C(C)C)[C@@H](C)O [PD048] (H-RCNTATCATQRLADFLRHSSNNLK([γGlu-C20 diacid])PILPPTNVGSNTP-NH2; disulfide 2-7 (inferred); N-terminus assumed) | Clear | Clear | 102.16%
3 | CC[C@H](C)[C@H](NC(=O)[C@@H]1CCCN1C(=O)[C@H](CCCCNC(=O)CC[C@H](NC(=O)CCCCCCCCCCCCCCCCCCC(=O)O)C(=O)O)NC(=O)[C@H](CC(C)C)NC(=O)[C@H](CC(N)=O)NC(=O)[C@H](CC(N)=O)NC(=O)[C@H](CO)NC(=O)[C@H](CO)NC(=O)[C@H](Cc1c[nH]cn1)NC(=O)[C@H](CCCNC(=N)N)NC(=O)[C@H](CC(C)C)NC(=O)[C@H](Cc1ccccc1)NC(=O)[C@H](CCC(=O)O)NC(=O)[C@H](C)NC(=O)[C@H](CC(C)C)NC(=O)[C@H](CCCNC(=N)N)NC(=O)[C@H](CCC(N)=O)NC(=O)[C@@H](NC(=O)[C@H](C)NC(=O)[C@@H]1CSSC[C@H](NC(=O)[C@@H](N)CCCNC(=N)N)C(=O)N[C@@H](CC(N)=O)C(=O)N[C@@H]([C@@H](C)O)C(=O)N[C@@H](C)C(=O)N[C@@H]([C@@H](C)O)C(=O)N1)[C@@H](C)O)C(=O)N[C@@H](CC(C)C)C(=O)N1CCC[C@H]1C(=O)N1CCC[C@H]1C(=O)N[C@H](C(=O)N[C@@H](CC(N)=O)C(=O)N[C@H](C(=O)NCC(=O)N[C@@H](CO)C(=O)N[C@@H](CC(N)=O)C(=O)N[C@H](C(=O)N1CC[C@@H](N)[C@H]1C(N)=O)[C@@H](C)O)C(C)C)[C@@H](C)O [PD061] (H-RCNTATCATQRLAEFLRHSSNNLK([γGlu-C20 diacid])PILPPTNVGSNT[X1]-NH2; disulfide 2-7; N-terminus assumed) | Clear | Clear | 100.32%
4 | CC[C@H](C)[C@H](NC(=O)[C@@H]1CCCN1C(=O)[C@H](CCCCNC(=O)CC[C@H](NC(=O)CCCCCCCCCCCCCCCCCCC(=O)O)C(=O)O)NC(=O)[C@H](CC(C)C)NC(=O)[C@H](CC(N)=O)NC(=O)[C@H](CC(N)=O)NC(=O)[C@H](CO)NC(=O)[C@H](CO)NC(=O)[C@H](Cc1c[nH]cn1)NC(=O)[C@H](CCCNC(=N)N)NC(=O)[C@H](CC(C)C)NC(=O)[C@H](Cc1ccccc1)NC(=O)[C@H](CC(=O)O)NC(=O)[C@H](C)NC(=O)[C@H](CC(C)C)NC(=O)[C@H](CCCNC(=N)N)NC(=O)[C@H](CCC(N)=O)NC(=O)[C@@H](NC(=O)[C@H](C)NC(=O)[C@@H]1CSSC[C@H](NC(=O)[C@@H](N)CCCNC(=N)N)C(=O)N[C@@H](CC(N)=O)C(=O)N[C@@H]([C@@H](C)O)C(=O)N[C@@H](C)C(=O)N[C@@H]([C@@H](C)O)C(=O)N1)[C@@H](C)O)C(=O)N[C@@H](CC(C)C)C(=O)N1CCC[C@H]1C(=O)N1CCC[C@H]1C(=O)N[C@H](C(=O)N[C@@H](CC(N)=O)C(=O)N[C@H](C(=O)NCC(=O)N[C@@H](CO)C(=O)N[C@@H](CC(N)=O)C(=O)N[C@H](C(=O)N1CC[C@@H](N)[C@H]1C(N)=O)[C@@H](C)O)C(C)C)[C@@H](C)O [PD062] (H-RCNTATCATQRLADFLRHSSNNLK([γGlu-C20 diacid])PILPPTNVGSNT[X1]-NH2; disulfide 2-7; N-terminus assumed) | Clear | Clear | 102.63%
5 | PD133: KCNTATCATQRLADFLRHSSNNLGPILPPTNVGSNT-trans-Hyp-NH2; N-terminal; Trx + C20 diacid ({C20 diacid-Trx′}-KCNTATCATQRLADFLRHSSNNLGPILPPTNVGSNT-{trans‑Hyp-NH2}; disulfide 2-7 (inferred); reading uncertain; also: printed as KCNTATCATQRLADFLRHSSNNLGPILPPTNVGSNT-trans-Hyp-NH2) | Clear | Clear | 98.24%
6 | PD135: KCNTATCATQRLADFLRHSSNNLGPILPPTNVGSNT-trans-Hyp-NH2; N-terminal, 1K-ϵ; γGlu + C10 diacid ({HOOC(CH2)8CO-γGlu}-K([γGlu-HOOC(CH2)8CO])CNTATCATQRLADFLRHSSNNLGPILPPTNVGSNT-{trans‑Hyp-NH2}; disulfide 2-7 (inferred)) | Clear | Clear | 110.57%
7 | PD136: KCNTATCATQRLADFLRHSSNNLGPILPPTNVGSNT-trans-Hyp-NH2; N-terminal, 1K-ϵ; γGlu + C12 diacid ({C12 diacid-γGlu}-K([γGlu-C12 diacid])CNTATCATQRLADFLRHSSNNLGPILPPTNVGSNT-{trans‑Hyp-NH2}; disulfide 2-7 (inferred)) | Clear | Clear | 108.07%
8 | PD137: KCNTATCATQRLADFLRHSSNNLGPILPPTNVGSNT-trans-Hyp-NH2; N-terminal, 1K-ϵ; γGlu + C14 diacid ({C14 diacid-γGlu}-K([γGlu-C14 diacid])CNTATCATQRLADFLRHSSNNLGPILPPTNVGSNT-{trans‑Hyp-NH2}; disulfide 2-7 (inferred)) | Clear | Clear | 102.20%
9 | PD138: KCNTATCATQRLADFLRHSSNNLGPILPPTNVGSNT-trans-Hyp-NH2; N-terminal, 1K-ϵ; γGlu + C16 diacid ({C16 diacid-γGlu}-K([γGlu-C16 diacid])CNTATCATQRLADFLRHSSNNLGPILPPTNVGSNT-{trans‑Hyp-NH2}; disulfide 2-7 (inferred)) | Clear | Clear | 106.03%
10 | PD139: KCNTATCATQRLADFLRHSSNNLGPILPPTNVGSNT-trans-Hyp-NH2; N-terminal, 1K-ϵ; γGlu + C18 diacid ({C18 diacid-γGlu}-K([γGlu-C18 diacid])CNTATCATQRLADFLRHSSNNLGPILPPTNVGSNT-{trans‑Hyp-NH2}; disulfide 2-7 (inferred)) | Clear | Clear | 104.78%
11 | PD148: KCNTATCATQRLADFLRHSSNNLKPILPPTNVGSNT-trans-Hyp-NH2; N-terminal, 1K-ϵ; γGlu + C10 diacid ({HOOC(CH2)8CO-γGlu}-K([γGlu-HOOC(CH2)8CO])CNTATCATQRLADFLRHSSNNLKPILPPTNVGSNT-{trans‑Hyp-NH2}; disulfide 2-7 (inferred)) | Clear | Clear | 103.34%
12 | PD149: KCNTATCATQRLADFLRHSSNNLKPILPPTNVGSNT-trans-Hyp-NH2; N-terminal, 1K-ϵ; γGlu + C12 diacid ({C12 diacid-γGlu}-K([γGlu-C12 diacid])CNTATCATQRLADFLRHSSNNLKPILPPTNVGSNT-{trans‑Hyp-NH2}; disulfide 2-7 (inferred)) | Clear | Clear | 99.99%
